Test results reported in publication PMC6168351 (Molecular cancer therapeutics, 2018).

Target: Human GPA33 (Novoprotein), recombinant (Homo sapiens (Human)., UniProt Q99795)
Assay: SPR

Sequence of Human GPA33 (Novoprotein), recombinant (Q99795 22-235): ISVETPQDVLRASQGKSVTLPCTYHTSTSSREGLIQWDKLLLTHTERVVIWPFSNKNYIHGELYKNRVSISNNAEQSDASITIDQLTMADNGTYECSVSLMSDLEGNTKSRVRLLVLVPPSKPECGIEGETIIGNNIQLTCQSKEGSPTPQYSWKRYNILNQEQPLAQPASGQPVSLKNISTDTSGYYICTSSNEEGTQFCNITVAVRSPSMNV

B1: huA33 (humanized A33 antibody, selected clone), IgG1 (antibody, V domains shown)
VH: EVQLVESGGGLVKPGGSLRLSCAASGFAFSTYDMSWVRQAPGKRLEWVATISSGGSYTYYLDSVKGRFTISRDNAKNSLYLQMNSLRAEDTAVYYCAPTTVVPFAYWGQGTLVTVSS
VL: DIQMTQSQSSLSTSVGDRVTITCKASQNVRTVVAWYQQKPGKSPKTLIYLASNRHTGVPSRFSGSGSGTEFTLTISNVQPEDFADYFCLQHWSYPLTFGSGTKLEIK
Kd: 0.13 nM
